Where a chain is given by its changes, count along the chain named.

Sequences and labels used below:
T1: recombinant CEACAM6 (R&D Systems #3934-CM) (human, UniProt P40199 35-320)
T1 construct: Bought protein
T1 sequence: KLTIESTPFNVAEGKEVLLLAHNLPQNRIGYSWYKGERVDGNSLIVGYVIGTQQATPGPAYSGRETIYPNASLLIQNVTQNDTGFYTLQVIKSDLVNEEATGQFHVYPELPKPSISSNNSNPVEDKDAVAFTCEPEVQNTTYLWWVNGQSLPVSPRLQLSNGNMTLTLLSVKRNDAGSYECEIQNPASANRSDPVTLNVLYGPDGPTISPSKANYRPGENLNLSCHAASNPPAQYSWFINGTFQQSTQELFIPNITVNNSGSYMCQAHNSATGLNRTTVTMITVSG

T2: recombinant CEACAM5 (R&D Systems #4128-CM) (human, UniProt P06731 35-685)
T2 construct: Bought protein
T2 sequence: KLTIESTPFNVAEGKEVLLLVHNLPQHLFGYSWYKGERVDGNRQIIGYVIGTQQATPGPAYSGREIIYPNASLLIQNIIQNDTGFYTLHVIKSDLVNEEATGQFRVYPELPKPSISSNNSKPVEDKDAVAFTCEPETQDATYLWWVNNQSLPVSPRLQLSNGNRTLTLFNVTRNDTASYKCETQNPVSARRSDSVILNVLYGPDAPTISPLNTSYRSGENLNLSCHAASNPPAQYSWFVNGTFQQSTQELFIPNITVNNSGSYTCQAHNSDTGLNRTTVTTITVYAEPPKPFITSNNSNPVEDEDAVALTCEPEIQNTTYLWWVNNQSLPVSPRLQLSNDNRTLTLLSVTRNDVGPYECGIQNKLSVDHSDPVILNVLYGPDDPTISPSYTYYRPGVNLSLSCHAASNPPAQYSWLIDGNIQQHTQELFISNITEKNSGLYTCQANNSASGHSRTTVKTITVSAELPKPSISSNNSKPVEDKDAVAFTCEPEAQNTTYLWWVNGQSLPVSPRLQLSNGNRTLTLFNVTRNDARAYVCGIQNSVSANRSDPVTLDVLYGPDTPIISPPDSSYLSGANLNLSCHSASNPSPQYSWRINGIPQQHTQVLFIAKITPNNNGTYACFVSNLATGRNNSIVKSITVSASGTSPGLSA

T3: CEACAM5 overexpressed on HEK293T cells (human, UniProt P06731 35-685)
T3 construct: also called CEACAM5 expressing HEK293T cells
T3 sequence: T2 sequence

T4: CEACAM6 overexpressed on HEK293T cells (human, UniProt P40199 35-320)
T4 construct: also called CEACAM6 expressing HEK293T cells
T4 sequence: T1 sequence

T5: full length CEACAM1 overexpressed on HEK293T cells (human, UniProt P13688 35-526)
T5 construct: also called CEACAM-1 expressing HEK293T cells
T5 sequence: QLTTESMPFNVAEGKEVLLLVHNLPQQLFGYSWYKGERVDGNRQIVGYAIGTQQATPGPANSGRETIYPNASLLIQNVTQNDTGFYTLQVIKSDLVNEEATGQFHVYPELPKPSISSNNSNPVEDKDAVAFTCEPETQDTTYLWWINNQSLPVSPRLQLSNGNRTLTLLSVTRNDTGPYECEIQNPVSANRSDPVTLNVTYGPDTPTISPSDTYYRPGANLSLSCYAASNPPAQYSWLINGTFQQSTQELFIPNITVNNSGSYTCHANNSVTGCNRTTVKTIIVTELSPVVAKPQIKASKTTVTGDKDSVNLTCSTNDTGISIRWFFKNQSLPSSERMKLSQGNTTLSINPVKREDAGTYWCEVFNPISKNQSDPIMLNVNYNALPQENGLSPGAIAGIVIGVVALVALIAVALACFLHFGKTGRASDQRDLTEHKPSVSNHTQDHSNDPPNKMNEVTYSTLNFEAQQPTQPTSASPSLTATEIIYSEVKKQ

B1: CCMB09.004 (antibody, V domains shown)
VH: QVQLQESGPGLVKPSQTLSLTCTVTGDSIRSGGHYWSWIRQHPGKGLEWIGNIYYSGSTHYNPSLKSRLTISVDTSKNQFSLKVSSVTAADTAVYYCARGRLLWFGEPQDFQHWGQGTLVTVSS
VL: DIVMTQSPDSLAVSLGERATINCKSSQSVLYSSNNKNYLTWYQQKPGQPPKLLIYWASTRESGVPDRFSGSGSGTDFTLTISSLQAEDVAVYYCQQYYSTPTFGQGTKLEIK
notes: also called mAb 5
B2: CCMB03.004 (antibody, V domains shown)
VH: QVQLVQSGSELRTPGASVKVSCKASGYTFTSYGLSWVRQAPGQGLEWMGWINTNTGNPTYAQGFTGRFVFSLDTSVSTAYLQISSLKAEDTAVYYCARKGIWGPFDYWGQGTLVTVSS
VL: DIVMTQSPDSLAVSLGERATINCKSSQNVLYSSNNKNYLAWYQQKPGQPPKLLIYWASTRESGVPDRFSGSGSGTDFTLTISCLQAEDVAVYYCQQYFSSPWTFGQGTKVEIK
notes: also called mAb 2
B3: CCMB04.004 (antibody, V domains shown)
VH: B2 VH with R12K, T13K, S31N, L34V, S35N, A61V, S77T, Q82H, Y95F, Y107H
VL: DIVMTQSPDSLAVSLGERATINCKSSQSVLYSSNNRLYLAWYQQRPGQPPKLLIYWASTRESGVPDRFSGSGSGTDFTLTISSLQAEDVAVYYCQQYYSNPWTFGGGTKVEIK
notes: also called mAb 3
B4: CCMB18.004 (antibody, V domains shown)
VH: QVQLVQSGSELKKPGASVKVSCKASGYTLTDYGMNWVRQAPGQGLQWMGWINTNTGNPTYAQGFTGRFVFSLDTSVSTAYLQISSLKTEDTAVYYCARKAIWGWFDPWGQGTLVTVSS
VL: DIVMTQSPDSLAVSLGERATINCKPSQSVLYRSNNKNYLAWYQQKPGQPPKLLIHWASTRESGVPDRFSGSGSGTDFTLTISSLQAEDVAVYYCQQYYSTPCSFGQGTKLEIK
notes: also called mAb 6
B5: CCMB61.004 (antibody, V domains shown)
VH: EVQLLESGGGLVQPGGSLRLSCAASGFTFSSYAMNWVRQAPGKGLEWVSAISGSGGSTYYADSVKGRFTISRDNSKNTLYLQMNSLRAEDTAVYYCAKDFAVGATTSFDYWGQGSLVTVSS
VL: SSELTQDPAVSVALGQTVRITCQGDSLRSYYVSWYQQKPGQAPTLVIYGKNNRPSGIPDRFSGSSSGNTPSLTITGAQAEDEADYYCNSRDSSNHLVVFGGRTKLTVL
notes: also called mAb 11
B6: CCMB02.004 (antibody, V domains shown)
VH: EVQLLESGGGLVQPGGSLRLSCAASGFTFINYAMNWVRLTPGKGLEWVSVISGSGSGTYYADSVKGRFTVSRDNSKNTLYLQMNSLRVEDTAIYYCASPPPMVRGVIITIGNYWGQGALVTVSS
VL: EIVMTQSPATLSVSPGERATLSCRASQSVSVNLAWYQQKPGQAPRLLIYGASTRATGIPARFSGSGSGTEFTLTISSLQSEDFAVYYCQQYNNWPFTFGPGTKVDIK
notes: also called mAb 1
B7: CCMB07.004 (antibody, V domains shown)
VH: B6 VH with I30T, T40A
VL: EIVMTQSPATLSVSPGERATLSCRASQSVSVNLAWYQQKPGQAPRLLIYGASTRATSIPTRFSGSGSGTEFTLTISSLQSEDFAVYYCQQYNNWPFTFGPGTKVEIK
notes: also called mAb 4
B8: CCMB66.004 (antibody, V domains shown)
VH: EVQLVQSGAEVKKPGESLKISCKGSGYSFTSYWIGWVRQMPGKGLEWMGIIYPGDSDTRYSPSFQGQVTISADKSISTAYLQWSSLKASDTAMYYCARGYPAPTVNDLDYWGQGTLVTVSS
VL: not shown
notes: also called mAb 12
B9: CCMB20.004 (antibody, V domains shown)
VH: EVQLLESGGGLVQPGESLRLSCAASGFTFNNYAMTWVRQAPGKGLDWVSSISGTSANTYYADAVKGRFTISRDNSMTTLYLQMNSLRAEDTAVYYCAKPILTLFGELPLDYWGQGTLVTVSS
VL: B7 VL with V31S, P40T, S57A, I58F, T60A, F96L, P100G
notes: also called mAb 7
B10: CCMB42.004 (antibody, V domains shown)
VH: EVQLLESGGGLVQPGGSLRLSCAASGFTFNTYGMSWARQAPGKGLEWVSTISGSGDNTYYADSVKGRFTISRDNSKNTLYLQINSLRAEDTAVYYCAKGGLLWFGELPYPFDYWGQGTLVTVSS
VL: QSALTQPASVSGSPGQSITISCTGTSSDVGGYNYVSWYQQHPGKAPKLMIYDVSNRPSGVSNRFSGSKSDNTASLTISGLQAEDEADYYCSSYISTSTLYVFGIGTKVTVL
notes: also called mAb 10
B11: CCMB23.004 (antibody, V domains shown)
VH: QLQLQESGPGLVKPSETLSLTCTVSADSISRTSYYWGWIRQPPGKGLEWIGTIYYSGSTYYNPSLKSRVTISVDTSRNHFSLTLNSVTAADTAVYYCARQIAVGAHRFDYWGQGTLVTVSS
VL: DIQLTQSPSFLSASVGDRVTITCRASQGISSYLAWYQQKPGKAPKLLIYAASTLQSGVPSRFSGSGSGTEFTLTISSLQPEDFATYYCQQLNSYPWTFGQGTKVEIK
notes: also called mAb 8
B12: CCMB35.004 (antibody, V domains shown)
VH: EVQLLESGGGLVQPGESLRLSCAASGLTFSDYAMNWVRQAPGKGLYWVSSISGTGGSTYYADSLKGRFTISRDNSKNTLYLQMNSLRAEDTAVYYCAKDIAVGVTAYFDHWGQGTLVTVSS
VL: SSELTQDPAVSVALGQTVRITCQGDSLRTYSASWYQQKPGQAPVLVIYGKNNRPSGIPDRFSGSSSGNTASLTITGAQAEDEADYYCNSRDSRGNLLVVFGGGTKLTVL
notes: also called mAb 9

In the first test the target is T1, recombinant CEACAM6 (R&D Systems …). Kind of test: ELISA, plate-coated recombinant CEACAM6. The protocol: (§1) Plates were coated with 50 μl of 1 μg/ml of CEACAM1 (#2244-CM, R&D Systems) overnight at 4° C. The next day, in 16 h, plates were blocked with 200 μl 0.4% bovine serum albumin (BSA) (Sigma, A9647) in PBS for 1 hr at room temperature. Plates were washed once with 300 μl of 0.02% Tween-20 in PBS on a Biotek plate washer. 1/2 log dilutions of CEACAM mAbs starting from 10 μg/ml to 0.0001 ug/ml in 0.4% BSA, or PBS only, were plated for each antibody. 50 μl of each dilution were added to coated plates. Plates were incubated at room temp for approx 30 min. Plates were then washed 3 times with 300 μl of 0.02% Tween-20 in PBS using a Biotek plate washer. […] Plates were incubated at room temp for approximately 30 min. Plates were then washed 3 times with 300 ul of PBS/0.02% Tween-20 on a Biotek plate washer. 50 μl of 3,3′,5,5′-Tetramethylbenzidine (TMB, Sigma T0440) were added, allowed for color development, followed by adding 50 ul of 4N H₂SO₄. Plates were analyzed at 450 nm using EnVision Microplate Reader (PerkinElmer). Isotype control (CNT08939 antibody, specific to RSV virus, having the human IgG2 sigma backbone) was plated on last 3 plates at a concentration 10 μg/ml. Absorbance at 450 nm (FIG. 2) was analyzed using XY scatter plots and non-linear fit curves were generated after log transformation, and EC50 values were calculated, using GraphPad Prism (GraphPad Software, San Diego, Calif.). For several antibodies the EC50 could not be calculated using GraphPad Prism due to poor curve fit; in these cases the EC50 values were visually estimated at the midpoint of the available curve. EC50 values for binding to recombinant CEACAM1 are represented in Table 1.
(§2) 3.1 Binding to recombinant CEACAM5 and CEACAM6. Cross-screening for specificity of purified phage and hybridoma antibodies to recombinant CEACAM5 (R&D Systems #4128-CM) and CEACAM6 (R&D Systems #3934-CM) was performed using ELISA, according to the protocol described in Example 2. Binding curves for binding of mAbs to CEACAM5 are shown on FIG. 5a, and to CEACAM6 on FIG. 5b.
A general note: An ELISA detects its analyte on a solid surface through an enzyme-linked reagent.
By EC50 is commonly meant the concentration at which the effect is half-maximal. B1: the EC50 amounted to 5.13 µg/mL.

Take B2: the EC50 worked out at 5 µg/mL.

Take B3: the EC50 came out at 5.57 µg/mL.

On to B4, for which the EC50 turned out to be 6.05 µg/mL.

As to B5, the EC50 was 1240 µg/mL.

The next test concerns the target T2, recombinant CEACAM5 (R&D Systems …). Kind of test: ELISA, plate-coated recombinant CEACAM5. The protocol:
as §1, §2
For the molecule B1, the EC50 stood at 4.46 µg/mL.

In the case of B2, the 50% effective concentration (EC50) was found to be 16.4 µg/mL.

On to B3, for which the EC50 came to 6.46 µg/mL.

Turning to B6, the EC50 is 50 µg/mL.

In the case of B7, the EC50 was 9.77 µg/mL.

For B8, the EC50 turned out to be 1690 µg/mL.

Consider B9, for which the EC50 turned out to be 4.27 µg/mL.

As for B4, the EC50 is 4.32 µg/mL.

B10: the EC50 is 1.14 µg/mL.

A further test addresses T3, CEACAM5 overexpressed on HEK293T cells. Kind of test: flow cytometry on HEK293T cells overexpressing CEACAM5. On the technique in general: A flow cytometer gives signals particle by particle.
On to B11, for which the binding result was “no binding”.

B12: the binding result is on record as “no binding”.

For B5, the binding result is “no binding”.

Another test concerns the target T4, CEACAM6 overexpressed on HEK293T cells. Kind of test: flow cytometry on HEK293T cells overexpressing CEACAM6.
In the case of B11, the binding result is “no binding”.

As for B1, the EC50 was 0.0158 µg/mL.

As for B12, the binding result is on record as “no binding”.

The molecule B2 returned an EC50 of 0.00515 µg/mL.

Regarding B3, the response was half-maximal at 0.0109 µg/mL (EC50).

As to B6, the binding result is listed as “no binding”.

On to B7, for which the binding result is reported as “no binding”.

As for B8, the binding result is “no binding”.

In the case of B9, the binding result is “no binding”.

As for B4, the EC50 was determined as 0.0118 µg/mL.

Take B10: the binding result was “no binding”.

For a further test, the target named is T5, full length CEACAM1 overexpressed on …. Put plainly: flow cytometry on HEK293T cells overexpressing CEACAM1. The source says:
CEACAM1 overexpressing cells were then subcloned and sorted for purified populations of CEACAM1 positive cells, using standard techniques (FIG. 3). These cells were then used to generate binding curves by flow cytometry (FIG. 4).
B11: the EC50 was found to be 0.00419 µg/mL.

The molecule B12 had an EC50 of 0.0275 µg/mL.

Consider B5, for which the EC50 worked out at 0.0353 µg/mL.

(Values after patent US20210095024A1 (Janssen / Centocor, published 2021).)
